Experimental data reported in paper PMC3982999.

Target: GST-tetra-ubiquitin (4×UB) (UniProt P0CG48)
Test: LUMIER

fold weaker binding than to 2×UB: 4 fold
B1: Renilla luciferase fused to the full-length WT spartin (natural protein)
chain: MEQEPQNGEPAEIKIIREAYKKAFLFVNKGLNTDELGQKEEAKNYYKQGIGHLLRGISISSKESEHTGPGWESARQMQQKMKETLQNVRTRLEILEKGLATSLQNDLQEVPKLYPEFPPKDMCEKLPEPQSFSSAPQHAEVNGNTSTPSAGAVAAPASLSLPSQSCPAEAPPAYTPQAAEGHYTVSYGTDSGEFSSVGEEFYRNHSQPPPLETLGLDADELILIPNGVQIFFVNPAGEVSAPSYPGYLRIVRFLDNSLDTVLNRPPGFLQVCDWLYPLVPDRSPVLKCTAGAYMFPDTMLQAAGCFVGVVLSSELPEDDRELFEDLLRQMSDLRLQANWNRAEEENEFQIPGRTRPSSDQLKEASGTDVKQLDQGNKDVRHKGKRGKRAKDTSSEEVNLSHIVPCEPVPEEKPKELPEWSEKVAHNILSGASWVSWGLVKGAEITGKAIQKGASKLRERIQPEEKPVEVSPAVTKGLYIAKQATGGAAKVSQFLVDGVCTVANCVGKELAPHVKKHGSKLVPESLKKDKDGKSPLDGAMVVAASSVQGFSTVWQGLECAAKCIVNNVSAETVQTVRYKYGYNAGEATHHAVDSAVNVGVTAYNINNIGIKAMVKKTATQTGHTLLEDYQIVDNSQRENQEGAANVNVRGEKDEQTKEVKEAKKKDK
